Consider three substances from paper PMC12142670.

Broadly, the Kd is a measure of binding affinity in units of concentration.

Where two headings read alike, the source gives them in different places.

The target in test [1] is IgG4 heavy chain CH3 (Homo sapiens) [IgG part: P01861]. As to conditions: cited from earlier work.
Test [2] deals with hinge-deleted human IgG4 anti-epidermal growth factor receptor (EGFR) antibody (IgG4Δhinge), L368A variant (human). Kind of test: native MS; variable-temperature ESI native MS (vT-ESI-MS); 2.5 uM antibody in 150 mM ammonium acetate pH 7.5; continuous ramp from 30 to 100 °C at 2 °C/min; full noncovalent antibody to two half antibodies.
The target is the same in test [3]. Described as above. This is another data set of the same source.
In test [4] the target is hinge-deleted human IgG4 anti-epidermal growth factor receptor (EGFR) antibody (IgG4Δhinge), R409K variant (human). The description is as above.

Chain of IgG4 heavy chain CH3 (P01861 218-328): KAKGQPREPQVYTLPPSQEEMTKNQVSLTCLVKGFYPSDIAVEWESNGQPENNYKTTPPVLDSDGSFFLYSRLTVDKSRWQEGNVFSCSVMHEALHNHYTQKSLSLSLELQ

Regarding “IgG4 heavy chain CH3 (from UniProt P01861)”, the Kd in test [1] is 49.7 nM.

With “hinge-deleted human IgG4 anti-epidermal growth factor receptor (EGFR) antibody (IgG4Δhinge), L368A variant”, the T1/2 (dissociation temperature of the full antibody into half antibodies) in test [2] was found to be 53 °C; in test [3], 52 °C.

Regarding “hinge-deleted human IgG4 anti-epidermal growth factor receptor (EGFR) antibody (IgG4Δhinge), R409K variant”, the T1/2 (dissociation temperature of the full antibody into half antibodies) in test [4] is 77 °C.
